# According to patent US20240239878A1 (SHANGHAI QILU PHARMACEUTICAL RESEARCH AND DEVELOPMENT CENTRE, published 2024):
# T1: human DLL1 (Sino Biological, Cat. No. 11635-H08H) (human, UniProt O00548 18-545)
# T1 construct: also called family protein DLL1
# T1 sequence: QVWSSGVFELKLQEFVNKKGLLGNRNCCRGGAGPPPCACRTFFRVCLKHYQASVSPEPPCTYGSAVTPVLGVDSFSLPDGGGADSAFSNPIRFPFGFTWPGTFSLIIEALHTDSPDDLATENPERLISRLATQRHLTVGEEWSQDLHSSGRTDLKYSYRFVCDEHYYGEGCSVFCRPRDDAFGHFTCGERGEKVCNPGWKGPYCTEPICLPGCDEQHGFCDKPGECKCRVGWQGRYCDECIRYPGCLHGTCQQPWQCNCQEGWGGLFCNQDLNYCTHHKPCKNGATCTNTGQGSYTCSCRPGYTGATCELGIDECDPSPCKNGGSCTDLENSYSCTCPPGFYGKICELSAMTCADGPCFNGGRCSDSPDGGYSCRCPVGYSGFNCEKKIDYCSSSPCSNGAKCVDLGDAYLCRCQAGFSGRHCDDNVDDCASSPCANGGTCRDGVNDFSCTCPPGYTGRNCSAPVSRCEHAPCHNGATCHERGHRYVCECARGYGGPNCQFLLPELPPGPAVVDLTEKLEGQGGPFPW
# T2: human DLL3 antigen protein (Kactus Biosystems, Cat. No. DLL-HM103) (human, UniProt Q9NYJ7 27-492)
# T2 sequence: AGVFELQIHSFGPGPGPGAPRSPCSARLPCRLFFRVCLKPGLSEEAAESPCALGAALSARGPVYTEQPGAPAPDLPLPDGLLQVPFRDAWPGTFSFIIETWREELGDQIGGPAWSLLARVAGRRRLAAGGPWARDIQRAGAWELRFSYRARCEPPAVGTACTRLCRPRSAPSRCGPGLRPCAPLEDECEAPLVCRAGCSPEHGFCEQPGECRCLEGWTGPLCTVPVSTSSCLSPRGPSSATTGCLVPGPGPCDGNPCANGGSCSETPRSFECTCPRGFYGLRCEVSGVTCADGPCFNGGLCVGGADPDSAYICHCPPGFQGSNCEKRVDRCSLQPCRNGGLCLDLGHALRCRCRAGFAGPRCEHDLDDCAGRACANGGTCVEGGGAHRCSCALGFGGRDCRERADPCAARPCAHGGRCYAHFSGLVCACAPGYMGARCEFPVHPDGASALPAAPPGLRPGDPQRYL
# B1: H2-39E2D11 mouse hybridoma-derived humanized anti-DLL3 antibody (antibody, V domains shown)
# VH: QVQLVQSGAEVKKPGASVKVSCKASGYTFISYWITWVRQAPGQGLEWMGDIYPGSGSTTNYNEKFKSRVTMTRDTSTSTVYMELSSLRSEDTAVYYCARETTVGGAYAMDYWGQGTLVTVSS
# VL: EIVLTQSPATLSLSPGERATLSCRASQSINNNLHWYQQKPGQAPRLLIKYVSQSISGIPARFSGSGSGTDFTLTISSLEPEDFAVYYCQQTNSWPLTFGGGTKLEIK
# B2: hDLL3-3-1 camelid-derived humanized anti-DLL3 antibody (antibody, human IgG1, V domains shown)
# VH: EVQLVESGGGLVQPGGSLRLSCAASTYTISSGYMGWFRQAPGKEREGVAAIYIGGSTTLYADSVKGRFTISRDNSKNTLYLQMNSLRAEDTAVYYCAAQLRPNSAYHPLDGRKYNYWGQGTLVTVSS
# Tests used:
# [1] = molecular target: T1, human DLL1 (Sino Biological, Cat. No. …); experiment: ELISA, plate coated with human DLL1 at 1 ug/mL, OD 450nm
# Method: The antigenic proteins human DLL1 (SinoBiological, cat. No. 11635-H08H) or human DLL4 (SinoBiological, cat. No. 10171-H08H) were dissolved in 1×PBS at a concentration of 1 μg/mL. […] The antigen was washed three times with PBST, 300 μL/well. The antigen was blocked with 1% BSA (in PBST), 200 µL/well, and incubated at 37° C. for 1.5 hours.
# Antibodies to be tested were diluted with 1% BSA (in PBS) at a starting concentration of 100 nM, downwards by a 10-fold gradient for 7 concentrations. The plates were washed three times with PBST, 300 μL/well. The diluted antibody was added to an ELISA plate at 100 μL/well and incubated at room temperature for 2 hours. The antibodies were washed three times with PBST, 300 μL/well. The secondary antibodies (goat anti-human IgG Fc for DLL4 (HRP), 1:20000 dilution; HRP goat anti-mouse IgG (H+L) for DLL1, 1:10000 dilution) were diluted with 1% BSA in PBST. The diluted secondary antibodies were added to the ELISA plate at 100 μL/well and incubated at room temperature for 1 hour. The plates were washed 6 times with PBST, 300 μL/well. The developing solution (TMA and TMB 1:1 mixed) was prepared. The developing solution was added to the plate, 100 μL/well, and incubated in the dark for 5 min. 50 μL of ELISA stop solution was added to the plate and shaken well.
# [2] = molecular target: T2, human DLL3 antigen protein (Kactus …); experiment: affinity assay with human DLL3 antigen protein (kinetics; method not restated, Biacore as in Example 10 implied)
Binder,binding result [1],Kd [2],koff [2],kon [2]
B1,no binding (tested: 100 nM),–,–,–
B2,–,0.45 nM,0.000614 s⁻¹,1.36e+06 M⁻¹ s⁻¹
